In article PMC5998024, “Hydrophobic pore gates regulate ion permeation in polycystic kidney disease 2 and 2L1 channels” (Nature Communications, 2018):

Molecular target: the molecule itself
Experiment: cryo-EM structure; single-particle cryo-EM of purified PKD2 F604P (53-792) in amphipols A8-35; C4 symmetry imposed, reconstruction without imposed symmetry also showed C4 symmetry; 3.5 Å

B1: maltose binding protein fused human PKD2 protein, residues 53-792, harboring the F604P GOF mutation (domain or fragment, UniProt Q13563-1 53-792, looked up)
chain: EIEMQRIRQAAARDPPAGAAASPSPPLSSCSRQAWSRDNPGFEAEEEEEEVEGEEGGMVVEMDVEWRPGSRRSAASSAVSSVGARSRGLGGYHGAGHPSGRRRRREDQGPPCPSPVGGGDPLHRHLPLEGQPPRVAWAERLVRGLRGLWGTRLMEESSTNREKYLKSVLRELVTYLLFLIVLCILTYGMMSSNVYYYTRMMSQLFLDTPVSKTEKTNFKTLSSMEDFWKFTEGSLLDGLYWKMQPSNQTEADNRSFIFYENLLLGVPRIRQLRVRNGSCSIPQDLRDEIKECYDVYSVSSEDRAPFGPRNGTAWIYTSEKDLNGSSHWGIIATYSGAGYYLDLSRTREETAAQVASLKKNVWLDRGTRATFIDFSVYNANINLFCVVRLLVEFPATGGVIPSWQFQPLKLIRYVTTFDFFLAACEIIFCFFIFYYVVEEILEIRIHKLHYFRSFWNCLDVVIVVLSVVAIGINIYRTSNVEVLLQFLEDQNTFPNFEHLAYWQIQFNNIAAVTVFFVWIKLFKFINFNRTMSQLSTTMSRCAKDLFGFAIMPFIIFLAYAQLAYLVFGTQVDDFSTFQECIFTQFRIILGDINFAEIEEANRVLGPIYFTTFVFFMFFILLNMFLAIINDTYSEVKSDLAQQKAEMELSDLIRKGYHKALVKLKLKKNTVDDISESLRQGGGKLNFDELRQDLKGKGHTDAEIEAIFTKYDQDGDQELTEHEHQQMRDDLEKEREDLDLD
notes: human PKD2 (polycystin-2, TRPP2), residues 53-792 (E53-D792), with the gain-of-function mutation F604P; cytoplasmic N- and C-termini not seen in the map; also called PKD2 F604P; F604P mutant; source: HEK293S GnTI- cells, transduced with baculovirus, purified (amylose resin, amphipols A8-35, Superdex 200)
  stoichiometry N: 4
